Experimental data from patent US20230329294A1 (CLARA FOODS, published 2023).

Molecular target: bovine trypsin (bovine, UniProt P00760 24-246)
Experiment: cell-based or functional assay

Sequence of bovine trypsin (P00760 24-246): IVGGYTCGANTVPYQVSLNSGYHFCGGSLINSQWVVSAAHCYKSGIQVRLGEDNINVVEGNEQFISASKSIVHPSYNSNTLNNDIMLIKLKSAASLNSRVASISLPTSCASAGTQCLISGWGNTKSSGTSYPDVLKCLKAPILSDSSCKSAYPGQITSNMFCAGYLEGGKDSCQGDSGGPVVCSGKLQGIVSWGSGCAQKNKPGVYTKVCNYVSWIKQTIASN

B1: native chicken ovomucoid (other)
chain: AEVDCSRFPNATDKEGKDVLVCNKDLRPICGTDGVTYTNDCLLCAYSIEFGTNISKEHDGECKETVPMNCSSYANTTSEDGKVMVLCNRAFNPVCGTDGVTYDNECLLCAHKVEQGASVDKRHDGGCRKELAAVSVDCSEYPKPDCTAEDRPLCGSDNKTYGNKCNFCNAVVESNGTLTLSHFGKC
modifications: complex branched N-linked glycosylation (that includes mannose)
- Trypsin inhibition activity: 13700 TIU/g
